According to the supplement of paper PMC10567573:
± gives the standard deviation.

Assay: protein stability index of a GFP-peptide fusion (GPS, HEK-293T) (PSI 1-6); higher = more stable
[1] = treatment: DMSO, c terminus: a fixed tail appended
[2] = treatment: MLN4924 1 uM, 8 h, c terminus: a fixed tail appended
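Further: 24-mer peptide tiles fused after GFP, lentivirally expressed, FACS-sorted into six equal bins by GFP/DsRed ratio, decoded by Illumina sequencing, PSI is the read-weighted mean bin number.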

Row | Sequence | protein stability index [1] | protein stability index [2] | protein stability index (treatment: DMSO, c terminus: native) | protein stability index (treatment: MLN4924 1 uM, 8 h, c terminus: native)
1 | HPAATALHAELCQAGSSQGLSLCQ [LPCAT4] | 4.22 ± 0.29 | 4.13 ± 0.16 | – | –
2 | TPSFSGDSSSSCSDHCITSSDMMD [VDR] | 5.11 ± 0.28 | 5.11 ± 0.12 | – | –
3 | QEAVPLGLGLEDADWTQGLPWRFE [TEX19] | 3.34 ± 0.21 | 3.34 ± 0.3 | – | –
4 | DTLADDVPGHQTPSDLDQFSDSSL [LURAP1L] | 5.44 ± 0.2 | 5.366 ± 0.053 | – | –
5 | RPLQVNTADHRIYSYVVSRPQPRG [FAF2] | 3.27 ± 0.43 | 3.49 ± 0.2 | – | –
6 | SSSSSSSPTSGSPRGSHSSALERL [LURAP1L] | 4.83 ± 0.15 | 4.91 ± 0.14 | – | –
7 | YPALASKNGKKWEILNFNQYYEAC [ACSBG2] | 2.68 ± 0.26 | 2.81 ± 0.41 | – | –
8 | EERSPSFGEDYYGPSRSRHRRRSR [CLK3] | 5.32 ± 0.2 | 5.46 ± 0.062 | – | –
9 | GAMLGQTTSEEAVGGATPDQTTSE [HDAC6] | 4.91 ± 0.58 | 5.59 ± 0.073 | – | –
10 | PACHSFNRAIHKKAKGTEAEEEY [FBXO34] | – | – | 5.25 ± 0.49 | 5.41 ± 0.34
11 | QGELADQDVDPVHNLIEQVSLGLG [FBXO33] | 4.55 ± 0.27 | 4.66 ± 0.072 | – | –
12 | KGGEERKAEGGEEDSLGCLTADTK [IRX6] | 5.44 ± 0.25 | 5.52 ± 0.16 | – | –
13 | ANGSEIHKHVHFSSSFTSIASEWF [SLC22A15] | 2.44 ± 0.32 | 2.39 ± 0.36 | – | –
14 | YFFLCQPFREILCKKLHIPLKAQN [P2RY14] | 2.62 ± 0.75 | 1.99 ± 0.25 | – | –
15 | SSRIEQGEWGGRHPSWPWTRCLRM | 2.5 ± 0.19 | 2.67 ± 0.38 | – | –
16 | RKDFSELRSAGVEQLMYIKEDLII [FAM50A] | 2.24 ± 0.21 | 2.13 ± 0.34 | – | –
17 | NSFRLLFDVVVILTCSLSFLLCAR [MCOLN1] | 3.21 ± 0.17 | 3.24 ± 0.24 | – | –
18 | QQFQPAGTDQVCVLEWGAEGVAGK [FCHSD1] | 4.46 ± 0.24 | 4.64 ± 0.23 | – | –
19 | DKKKELQELNELFKPVVAAQKISK [ZC3H15] | 4.39 ± 0.32 | 4.43 ± 0.17 | – | –
20 | KKKKIGFYFEVCGMMVESVNAKTL [PCDHGA10] | 2.28 ± 0.68 | 2.18 ± 0.38 | – | –
21 | SAEWFITAVGAILAGGLCVGIYAT [ACSBG2] | 3.53 ± 0.57 | 3.18 ± 0.091 | – | –
22 | AEMLGSVVGNWQYFFPVIFSKASD [MAGEA6] | 2.37 ± 0.31 | 2.31 ± 0.31 | – | –

Row | Sequence | protein stability index [1] | protein stability index [2] | protein stability index (treatment: DMSO, c terminus: native) | protein stability index (treatment: MLN4924 1 uM, 8 h, c terminus: native)
23 | EARICRLLKHSNIVRLHDSISEEG [CAMK2B] | 3.32 ± 0.41 | 3.46 ± 0.28 | – | –
24 | AFGNPKFALQGLPLNCAPCPRRSE [IRX6] | 4.202 ± 0.038 | 4.08 ± 0.13 | – | –
25 | KVLGHVNNILISAVLPTAFRVAKK [GDAP1] | 2.83 ± 0.59 | 2.44 ± 1.3 | – | –
26 | LSEEEKEELKAELVQLEDEITTLR [TPD52L1] | 5.03 ± 0.17 | 5.2 ± 0.19 | – | –
27 | VFGFIAAYVLSKYQYFVCPVEYRS [CDS1] | 3.38 ± 0.39 | 3.15 ± 0.27 | – | –
28 | SQIHNNGQSDFRPKNGRHAWIWHD [LOXL2] | 3.31 ± 0.35 | 3.22 ± 0.22 | – | –
29 | VPIGASIYVIGDLDTGTNYDYVRE [GAN] | 2.29 ± 0.45 | 2.21 ± 0.31 | – | –
30 | GGAGREDPGLWSRLCRLAGASSPA [ZSWIM9] | 3.12 ± 0.17 | 2.92 ± 0.36 | – | –
31 | LAAVLVEPKLHTPMYFFLGNLSVL [OR3A1] | 3.56 ± 0.33 | 3.57 ± 0.57 | – | –
32 | AGYRLGPAQPGADSSFPPALAEGY [TBX6] | 3.45 ± 0.38 | 3.62 ± 0.23 | – | –
33 | RFNKLGLDHLSLGEEPVPHQQVEE [NEK8] | 4.91 ± 0.22 | 4.89 ± 0.26 | – | –
34 | MRPWTGSWRWIMLILFAWGTLLFY [FUT8] | 3.24 ± 0.16 | 3 ± 0.092 | – | –
35 | DEKYGVPSLEELGFDTDGLSSAVW [CRY1] | 3.65 ± 0.22 | 3.86 ± 0.45 | – | –
36 | GGDYGLVTAGCGFGKDFRKGLLKK [PPTC7] | 3.22 ± 0.36 | 3.6 ± 0.48 | – | –
37 | ELDLRLRLAQPSSPEVLTPQLSPG [RTN2] | 4.23 ± 0.24 | 4.22 ± 0.15 | – | –
38 | IHPKNPHAPTIHFNYRYFEVEEAD [CPOX] | 3.75 ± 0.18 | 3.88 ± 0.17 | – | –
39 | TSSSTSGSSDKVYAHQMVRTDSRE [MLH1] | 5.08 ± 0.17 | 5.1 ± 0.17 | – | –
40 | TEYQIVTDPGDVPAFLKWLSLASL [SLC2A12] | 2.26 ± 0.35 | 2.16 ± 0.42 | – | –
41 | DPDINMHPFFFALGKILSVELGKQ [FADS1] | 2.46 ± 0.61 | 2.38 ± 0.59 | – | –
42 | DVGCISVTVPSMLSRLLSRKRAVP [OR3A1] | 2.71 ± 0.26 | 2.85 ± 0.19 | – | –
43 | LDLIFHVALPTEAEFQLVRDVVLC [TENT5C] | 2.98 ± 0.27 | 2.68 ± 0.73 | – | –
44 | VAGILSLLLGTAYSFYLFHPLAYG [POMT2] | 3.16 ± 0.24 | 2.98 ± 0.3 | – | –
